T1: FLI-1 (UniProt Q01543 1-452)
T1 sequence: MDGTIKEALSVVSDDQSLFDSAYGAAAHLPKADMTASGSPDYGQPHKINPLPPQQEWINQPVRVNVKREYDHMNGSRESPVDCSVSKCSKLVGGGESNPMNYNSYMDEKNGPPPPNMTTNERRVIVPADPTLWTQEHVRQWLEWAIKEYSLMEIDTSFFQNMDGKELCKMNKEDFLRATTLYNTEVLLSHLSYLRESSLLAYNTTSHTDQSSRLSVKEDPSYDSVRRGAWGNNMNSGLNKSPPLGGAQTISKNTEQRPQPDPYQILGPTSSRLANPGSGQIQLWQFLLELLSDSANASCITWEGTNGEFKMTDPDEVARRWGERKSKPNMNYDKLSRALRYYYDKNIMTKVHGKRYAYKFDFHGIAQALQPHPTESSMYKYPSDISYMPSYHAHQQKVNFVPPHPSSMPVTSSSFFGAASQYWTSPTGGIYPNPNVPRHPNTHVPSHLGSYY


Assays:
ELF-1 [1] = target: T2, ELF-1 (UniProt P32519 1-619); experiment: EMSA; anti-ELF-1 inhibits, weak supershift; 2 mM HEPES-NaOH pH 7.9, 5 mM KCl, 2% glycerol, 0.01 mM EDTA, 0.25 mM DTT, 0.1 mg/ml BSA, 5 ng/ul poly dI-dC, 50 fmol probe, 40 min at 4 C; 4% native gel, 0.5x TBE; settings: protein: ivt; label: 32P; blunt
FLI-1 [2] = target: T1, FLI-1; experiment: EMSA; supershift with anti-FLI-1; 2 mM HEPES-NaOH pH 7.9, 5 mM KCl, 2% glycerol, 0.01 mM EDTA, 0.25 mM DTT, 0.1 mg/ml BSA, 5 ng/ul poly dI-dC, 50 fmol probe, 40 min at 4 C; 4% native gel, 0.5x TBE; settings: protein: ivt; label: 32P; blunt
ELF-1 [3] = target: T2, ELF-1; experiment: EMSA; 2 mM HEPES-NaOH pH 7.9, 5 mM KCl, 2% glycerol, 0.01 mM EDTA, 0.25 mM DTT, 0.1 mg/ml BSA, 5 ng/ul poly dI-dC, 50 fmol probe, 40 min at 4 C; 4% native gel, 0.5x TBE; settings: protein: ivt; label: 32P as probe; blunt
FLI-1 [4] = target: T1, FLI-1; experiment: as above; settings: protein: ivt; label: 32P as probe; blunt

T2 sequence (P32519 whole entry): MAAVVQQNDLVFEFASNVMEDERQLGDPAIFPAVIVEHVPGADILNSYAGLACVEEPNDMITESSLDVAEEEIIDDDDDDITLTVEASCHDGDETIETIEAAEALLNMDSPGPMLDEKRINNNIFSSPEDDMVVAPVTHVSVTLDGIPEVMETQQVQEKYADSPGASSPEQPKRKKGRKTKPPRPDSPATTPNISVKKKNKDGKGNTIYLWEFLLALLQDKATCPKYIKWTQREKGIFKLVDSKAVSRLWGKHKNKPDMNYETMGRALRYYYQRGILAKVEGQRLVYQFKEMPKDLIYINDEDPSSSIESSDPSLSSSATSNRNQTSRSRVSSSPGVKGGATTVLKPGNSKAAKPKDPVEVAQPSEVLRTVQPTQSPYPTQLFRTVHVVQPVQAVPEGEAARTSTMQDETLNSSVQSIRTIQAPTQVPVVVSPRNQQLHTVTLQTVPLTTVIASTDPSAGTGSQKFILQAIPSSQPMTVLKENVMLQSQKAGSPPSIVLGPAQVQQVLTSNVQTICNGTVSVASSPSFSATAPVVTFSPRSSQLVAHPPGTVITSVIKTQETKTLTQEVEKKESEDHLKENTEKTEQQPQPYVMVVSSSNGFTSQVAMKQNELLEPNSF

Binder	binding result (ELF-1 [1])	binding result (FLI-1 [2])	binding result (ELF-1 [3])	binding result (FLI-1 [4])
-51 ETS (dsDNA) DNA 1: CCCGGGTTTCCGGACTGGGCTG DNA 2: CAGCCCAGTCCGGAAACCCGGG	binds	binds	–	–
-51 ETSmut (dsDNA) DNA 1: CCCGGGTCGGTGGACTGGGCTG DNA 2: CAGCCCAGTCCACCGACCCGGG	–	–	no binding	no binding
